Source: paper PMC10403523

Key:
[1] = tested on: yeast SWI/SNF complex, Snf2 delta-AT (Saccharomyces cerevisiae); experiment: EMSA; details: apparent KD, Kd EMSA: 6.7 nM DNA or nucleosome, 1.3-23 nM SWI/SNF, 4% native PAGE (79:1), Methods: prebinding 30 C, 15 min, gel in 0.5x TBE, binding buffer, salt and pH not …
[2] = tested on: yeast SWI/SNF complex, Snf2 delta-AT (Saccharomyces cerevisiae); experiment: competition; details: EMSA competition against 601 DNA; Kd EMSA: 6.7 nM DNA or nucleosome, 1.3-23 nM SWI/SNF, 4% native PAGE (79:1); Methods: prebinding 30 C, 15 min, gel in 0.5x …; binding buffer, salt and pH not

## 29N59 nucleosome
[1]; 6.7 nM nucleosome, recombinant Xenopus laevis histone octamer
  Kd: 20.5 nM

## 235 bp 601 DNA
[1]; 6.7 nM DNA
  Kd: 12.8 nM

## pUC19 plasmid
[2]
  Ki: 25 nM
